Patent US7645449B2, “Sensitizing cells for apoptosis by selectively blocking cytokines” (priority 2003, dated 2010)

Key:
normal thyrocytes = experiment: Cytokine protection of normal thyrocytes from chemotherapy-induced apoptosis; assay type: cell-based, human; settings: 48 h pre-treatment, rhIL-4 20 ng/ml or rhIL-10 40 ng/ml, then drugs for 12 h
Method: Thyroid cell purification and culture. Thyroid tissues from normal, PTC, FTC and UTC were digested for 2 hours with collagenase (1.5 mg/ml) (Gibco BRL, Grand Island, N.Y.) and hyaluronidase (20 μg/ml) (Sigma Chemical Co., St. Louis, Mo.) in DMEM. Thyrocytes were purified from the digested tissues by hematopoietic cell depletion with anti-CD45-coupled beads (Dynal, Wirral Merseyside, U.K.) and 12 hours of flask adherence, which allowed removal of other cells. After additional 12 hours of culture, thyroid cells were allowed to grow in monolayer for the immunocytochemistry or detached with trypsin+EDTA following exposure to cytokines or chemotherapeutic agents for functional and protein analyses. […]
Cell death quantitation. Apoptotic events of neoplastic thyrocytes were evaluated by DNA staining and flow cytometry analysis. […] The percentage of hypodiploid nuclei was evaluated as previously described. […] The number of viable cells was detected by CellTiter Aqueous Assay Kit (Promega Corporation, WI, USA) adding 20 μl of solution reagent directly to culture wells, incubating for 1 hours at 37° C. and recording absorbance at 490 nm. […]

[1] = system: Bcl-xL and Bcl-2 in normal thyrocytes; experiment: Immunoblot of Bcl-xL and Bcl-2 in normal thyrocytes cultured with cytokines; assay type: cell-based, human; settings: after 48 hours of culture; IL-4 20 ng/ml, IL-10 40 ng/ml, IFN-γ 1000 IU/ml
Method: Thyroid cell purification and culture. Thyroid tissues from normal, PTC, FTC and UTC were digested for 2 hours with collagenase (1.5 mg/ml) (Gibco BRL, Grand Island, N.Y.) and hyaluronidase (20 μg/ml) (Sigma Chemical Co., St. Louis, Mo.) in DMEM. Thyrocytes were purified from the digested tissues by hematopoietic cell depletion with anti-CD45-coupled beads (Dynal, Wirral Merseyside, U.K.) and 12 hours of flask adherence, which allowed removal of other cells. After additional 12 hours of culture, thyroid cells were allowed to grow in monolayer for the immunocytochemistry or detached with trypsin+EDTA following exposure to cytokines or chemotherapeutic agents for functional and protein analyses. Thyrocytes were cultured in standard DMEM with 10% heat-inactivated FBS (Hyclone Laboratories, Logan, UK) in the presence or absence of human recombinant IL-4 (20 ng/ml), IL-10 (40 ng/ml) or IFN-γ (1000 IU/ml) (uroclone, Paignton, UK) and cisplatin (300 ng/ml), doxorubicin (5 μM) and taxol (5 μM) (Sigma) or TRAIL (Alexis, San Diego, USA). For the IL-4 and IL-10 neutralization, thyroid cancer cells were pretreated, for 48 hours, with anti-human IL-4 and IL-10 neutralizing antibodies (1 μg/ml) (R&D systems, MN, USA).
Protein isolation and Western Blotting. Cell pellets were resuspended in ice-cold NP-40 lysis buffer (50 mM Tris-HCl, pH 7.5, 150 mM NaCl, 1 mM EGTA, 1% NP-40) containing 1 mM PMSF, leupeptin (1 μg/ml), pepstatin (1 μg/ml) and aprotirni (1 μg/ml). Each lysate (30 μg) was fractioned on 12% SDS-polyacrylamide gels and blotted to nitrocellulose (Hybond, Amersham, Little Chalfont Buckinghamshire England, UK). Membrane was blocked for 1 h with nonfat dry milk in TBS containing 0.05% Tween 20 and successively incubated for 2 h with Abs specific to actin (Ab-1, mouse IgM, Calbiochem, Darmstadt, Germany), Bcl-2 (124, mouse IgG1, Upstate Biotechnology Inc.), Bcl-xL (H-5, mouse IgGl, Santa Cniz Biotechnology), IL-4 (3007.11, mouse IgG1, R&D Systems, Inc., Minneapolis, USA), IL-10 (23738.111, mouse IgG2b, R&D Systems), IFN-γ (25718.111, mouse IgG2a, R&D Systems). […]

B1: IL-4: human recombinant IL-4 (protein, UniProt P05112 25-153, looked up)
Interleukin-4: HKCDITLQEIIKTLNSLTEQKTLCTELTVTDIFAASKNTTEKETFCRAATVLRQFYSHHEKDTRCLGATAQQFHRHKQLIRFLKRLDRNLWGLAGLNSCPVKEANQSTLENFLERLKTIMREKYSKCSS
prevention of death of normal thyrocytes exposed to cisplatinum, doxorubicin and taxol (normal thyrocytes): drastically prevented death | Bcl-xL and Bcl-2 expression in normal thyrocytes [1]: upregulated
